Data as given in the supplement of paper PMC7125110.
± gives the standard error. Variants at the floor of the assay were thinned out.

B1: glmS ribozyme (parent)
chain: AUAAAAGCGCCAGAACUACAGAAAUGUAGUUGACGAGGAGGAGGUUUAUCGAAUUUUCGGCGGAUGCCUCCAAA

Variants of: B1
Assay: self-cleavage kobs at 10000 uM GlcN6P; higher = faster cleavage; RNA array
Conditions: with glucosamine-6-phosphate
How it was run: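 Barcoded ribozyme variants on sequenced MiSeq chips were transcribed in situ by E. coli RNA polymerase and followed at 37 °C through a hybridised Cy3 probe. Glucosamine-6-phosphate at 40 μM to 10 mM in HEPES/KCl/Mg(OAc)2 buffer was flowed in, and tiles were imaged over ~14 h. Signals were normalised to baseline and to non-cleaving reference variants, and per-tile medians were fit to one- or two-exponential decays to give kobs. Weighted Michaelis–Menten fits across concentrations gave kcat and KM.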

G43C U45G A48U C50U C58U C67U and G59C A64U C71G cannot be ordered by “self-cleavage kobs at 10000 uM GlcN6P” value: under 1e-05 s⁻¹ for the first, under 1e-05 s⁻¹ for the second.

C11U G60A C68G and C11A U69G C71G are within error of each other in “self-cleavage kobs at 10000 uM GlcN6P” value: 5.38e-05 ± 1.9e-05 s⁻¹ for the first, 4.63e-05 ± 1.5e-05 s⁻¹ for the second.

Going from G9U U30C U31C G43A U65A C68U C71A to A12G U30G C58A, the “self-cleavage kobs at 10000 uM GlcN6P” value rises from under 1e-05 s⁻¹ to 0.000483 ± 9.8e-05 s⁻¹.

Going from U30G A42U to G29C U31C G66A, the “self-cleavage kobs at 10000 uM GlcN6P” value rises from 3.53e-05 ± 8.7e-06 s⁻¹ to 0.000105 ± 2.5e-05 s⁻¹ (3-fold).

Going from G37A U45A C61U C67U to A14C U30A U47G C70U, the “self-cleavage kobs at 10000 uM GlcN6P” value rises from under 1e-05 s⁻¹ to 8.66e-05 ± 1.4e-05 s⁻¹.

Compared with A15U G43A A64U C68G, G7A A33G C50A U69A C70U is higher in “self-cleavage kobs at 10000 uM GlcN6P” value: under 1e-05 s⁻¹ for the first, 9.88e-05 ± 1.8e-05 s⁻¹ for the second.

Compared with U47A C67U C71U, A6C G9A C34A G40C G43A C50U U54A C58G C68U is lower in “self-cleavage kobs at 10000 uM GlcN6P” value: 0.000453 ± 0.00017 s⁻¹ for the first, under 1e-05 s⁻¹ for the second.

Going from G29U U54A C71U to A14U A52C U57A C71U, the “self-cleavage kobs at 10000 uM GlcN6P” value falls from 0.00223 ± 0.00064 s⁻¹ to under 1e-05 s⁻¹.

U54G C61A and G13C A42G U65C cannot be ordered by “self-cleavage kobs at 10000 uM GlcN6P” value: under 1e-05 s⁻¹ for the first, under 1e-05 s⁻¹ for the second.

G9C U54G and C10U A15U U45A cannot be ordered by “self-cleavage kobs at 10000 uM GlcN6P” value: under 1e-05 s⁻¹ for the first, under 1e-05 s⁻¹ for the second.

Going from A28C C68U to U46G C50G C67G, the “self-cleavage kobs at 10000 uM GlcN6P” value falls from 0.00228 ± 0.00063 s⁻¹ to under 1e-05 s⁻¹.

First: U31G G38U A53U
Second: U31A U47G A48G
The “self-cleavage kobs at 10000 uM GlcN6P” value of the first is lower: under 1e-05 s⁻¹ for the first, 3.62e-05 ± 1.3e-05 s⁻¹ for the second.

C11G G38A A48C G60C G62C C68U and C11G G29A G41U C50G U56G C67U cannot be ordered by “self-cleavage kobs at 10000 uM GlcN6P” value: under 1e-05 s⁻¹ for the first, under 1e-05 s⁻¹ for the second.

Going from G41U C67G C68A to U46G C61G G63A, the “self-cleavage kobs at 10000 uM GlcN6P” value falls from 0.000314 ± 0.00012 s⁻¹ to under 1e-05 s⁻¹.

C10A U45A U46C C70A and G9U G13A U55G cannot be ordered by “self-cleavage kobs at 10000 uM GlcN6P” value: under 1e-05 s⁻¹ for the first, under 1e-05 s⁻¹ for the second.

Compared with A6G G59C G62A, A12C G29U U69G is higher in “self-cleavage kobs at 10000 uM GlcN6P” value: under 1e-05 s⁻¹ for the first, 3.54e-05 ± 1.6e-05 s⁻¹ for the second.

Going from U30G U47C U54C C67U to C11G G29U C34A A36U G37U G44C C68U, the “self-cleavage kobs at 10000 uM GlcN6P” value falls from 5.7e-05 ± 2.2e-05 s⁻¹ to under 1e-05 s⁻¹.

A6C G32C G41C C58U U65A and A33U G40C U56A G60C C71U cannot be ordered by “self-cleavage kobs at 10000 uM GlcN6P” value: under 1e-05 s⁻¹ for the first, under 1e-05 s⁻¹ for the second.

U46C U49A and A6U U47G C50A cannot be ordered by “self-cleavage kobs at 10000 uM GlcN6P” value: under 1e-05 s⁻¹ for the first, under 1e-05 s⁻¹ for the second.

U31C C67G C70A and G38A A52U U56G cannot be ordered by “self-cleavage kobs at 10000 uM GlcN6P” value: under 1e-05 s⁻¹ for the first, under 1e-05 s⁻¹ for the second.

Compared with U31G U54C C70G, G21U A52G is 12-fold higher in “self-cleavage kobs at 10000 uM GlcN6P” value: 0.000117 ± 2.3e-05 s⁻¹ for the first, 0.00145 ± 0.0003 s⁻¹ for the second.

Going from U45G G59U to G7U A12G G35A A39G U49A C67A, the “self-cleavage kobs at 10000 uM GlcN6P” value falls from 4.05e-05 ± 1.2e-05 s⁻¹ to under 1e-05 s⁻¹.

G9A U56C C58G and G32U G43U U69C cannot be ordered by “self-cleavage kobs at 10000 uM GlcN6P” value: under 1e-05 s⁻¹ for the first, under 1e-05 s⁻¹ for the second.

First: C11U A15G U31C C67G
Second: A15G G29A G32A A64G
The “self-cleavage kobs at 10000 uM GlcN6P” value of the first is 9.7-fold lower: 6.25e-05 ± 1.8e-05 s⁻¹ for the first, 0.000605 ± 0.00015 s⁻¹ for the second.

C8G A12C A33C and G13C A36G G51A U55A cannot be ordered by “self-cleavage kobs at 10000 uM GlcN6P” value: under 1e-05 s⁻¹ for the first, under 1e-05 s⁻¹ for the second.

Compared with C50G G63U U65A U69G, A14C U55A C71U is 42-fold higher in “self-cleavage kobs at 10000 uM GlcN6P” value: 0.000121 ± 2.7e-05 s⁻¹ for the first, 0.00514 ± 0.0013 s⁻¹ for the second.

Going from C8A C34U A64U C68U to A14C A39U U47C C70U, the “self-cleavage kobs at 10000 uM GlcN6P” value rises from under 1e-05 s⁻¹ to 0.00047 ± 6.5e-05 s⁻¹.

Going from G13C U56G A64G C67A to A6U G51C G63C U69G, the “self-cleavage kobs at 10000 uM GlcN6P” value falls from 3.32e-05 ± 1.4e-05 s⁻¹ to under 1e-05 s⁻¹.

C10G G32U G44A U54A C68A and C16A U30C A53C C70G cannot be ordered by “self-cleavage kobs at 10000 uM GlcN6P” value: under 1e-05 s⁻¹ for the first, under 1e-05 s⁻¹ for the second.

Going from G59A C68G C70U to C16G U45C C67G, the “self-cleavage kobs at 10000 uM GlcN6P” value rises from under 1e-05 s⁻¹ to 0.000811 ± 0.00018 s⁻¹.

G7A C34U U57A and C8G C58U C61U cannot be ordered by “self-cleavage kobs at 10000 uM GlcN6P” value: under 1e-05 s⁻¹ for the first, under 1e-05 s⁻¹ for the second.

Compared with U46A A48G, G9A A15U A39G A52U G60U is lower in “self-cleavage kobs at 10000 uM GlcN6P” value: 3.66e-05 ± 1.3e-05 s⁻¹ for the first, under 1e-05 s⁻¹ for the second.

Going from A12G A14C C67U to U30C G44U C58G, the “self-cleavage kobs at 10000 uM GlcN6P” value falls from 7.11e-05 ± 1.5e-05 s⁻¹ to under 1e-05 s⁻¹.

G13A G38U and G13U G38C G62A cannot be ordered by “self-cleavage kobs at 10000 uM GlcN6P” value: under 1e-05 s⁻¹ for the first, under 1e-05 s⁻¹ for the second.

Compared with C11A U30A C70G, C11G A36C G37C U46G G60A is lower in “self-cleavage kobs at 10000 uM GlcN6P” value: 5.91e-05 ± 1.5e-05 s⁻¹ for the first, under 1e-05 s⁻¹ for the second.

G43A U57C G59U A64U and C11G G13U G37C cannot be ordered by “self-cleavage kobs at 10000 uM GlcN6P” value: under 1e-05 s⁻¹ for the first, under 1e-05 s⁻¹ for the second.

A52U U55G A64U and A15C C16G G37C C58A G63C cannot be ordered by “self-cleavage kobs at 10000 uM GlcN6P” value: under 1e-05 s⁻¹ for the first, under 1e-05 s⁻¹ for the second.

A53G U57G C67G C68A and G37U G44U G60U cannot be ordered by “self-cleavage kobs at 10000 uM GlcN6P” value: under 1e-05 s⁻¹ for the first, under 1e-05 s⁻¹ for the second.

First: U47G U54G G62U
Second: A12G A42C U69A
The “self-cleavage kobs at 10000 uM GlcN6P” value of the first is lower: under 1e-05 s⁻¹ for the first, 0.000102 ± 1.5e-05 s⁻¹ for the second.

Going from G32C G35C U49C C68A to G13U U46C, the “self-cleavage kobs at 10000 uM GlcN6P” value rises from under 1e-05 s⁻¹ to 3.18e-05 ± 1.1e-05 s⁻¹.

G7C G32C G41C and G9A G29A G40U G51A cannot be ordered by “self-cleavage kobs at 10000 uM GlcN6P” value: under 1e-05 s⁻¹ for the first, under 1e-05 s⁻¹ for the second.

Going from U30A A33U G37C U69A to A14C U54G C70A, the “self-cleavage kobs at 10000 uM GlcN6P” value rises from under 1e-05 s⁻¹ to 7.96e-05 ± 1.8e-05 s⁻¹.
